Measured values taken from patent EP1731613A2 (DEGUSSA AG, dated 2006).

Molecular target: T1, Zwf sub-unit (Zwf protein) of glucose 6-phosphate dehydrogenase from Corynebacterium glutamicum ATCC13032 (Corynebacterium glutamicum ATCC13032)
T1 construct: also called Zwf gene product; 60 kDa protein
T1 chain: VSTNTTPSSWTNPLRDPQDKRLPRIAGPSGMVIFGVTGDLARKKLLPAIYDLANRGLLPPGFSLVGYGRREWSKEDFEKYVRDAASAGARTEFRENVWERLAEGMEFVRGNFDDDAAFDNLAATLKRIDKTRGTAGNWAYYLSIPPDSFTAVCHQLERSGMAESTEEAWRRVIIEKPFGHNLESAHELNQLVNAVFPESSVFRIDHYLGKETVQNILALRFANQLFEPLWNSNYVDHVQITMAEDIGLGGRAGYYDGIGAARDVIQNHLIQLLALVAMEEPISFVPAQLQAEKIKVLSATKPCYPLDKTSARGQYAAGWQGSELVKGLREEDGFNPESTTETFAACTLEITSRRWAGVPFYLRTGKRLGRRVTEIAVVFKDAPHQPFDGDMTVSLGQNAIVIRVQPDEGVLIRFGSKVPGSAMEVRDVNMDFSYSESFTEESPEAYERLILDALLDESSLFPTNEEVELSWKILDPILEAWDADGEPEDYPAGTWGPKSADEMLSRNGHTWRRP
Experiment: co-purification over DEAE, Red-Sepharose and 2'5'-ADP-sepharose and gel filtration (Superdex G200pg); SDS-PAGE

B1: OpcA sub-unit (OpcA protein) of glucose 6-phosphate dehydrogenase from Corynebacterium glutamicum ATCC13032 (enzyme)
chain: MIFELPDTTTQQISKTLTRLRESGTQVTTGRVLTLIVVTDSESDVAAVTESTNEASREHPSRVIILVVGDKTAENKVDAEVRIGGDAGASEMIIMHLNGPVADKLQYVVTPLLLPDTPIVAWWPGESPKNPSQDPIGRIAQRRITDALYDRDDALEDRVENYHPGDTDMTWARLTQWRGLVASSLDHPPHSEITSVRLTGASGSTSVDLAAGWLARRLKVPVIREVTDAPTVPTDEFGTPLLAIQRLEIVRTTGSIIITIYDAHTLQVEMPESGNAPSLVAIGRRSESDCLSEELRHMDPDLGYQHALSGLSSVKLETV
notes: also called OpcA gene product; 30 kDa protein
- binding result: binds
